According to PMC9980635 (mAbs, 2023):

Assays:
[1] = target: cynoLAMP1 presented on the surface of engineered cell lines (Macaca fascicularis, UniProt A0A2K5UUW0); experiment: flow cytometry on cells
[2] = target: human LAMP-1 extracellular domain (Homo sapiens, UniProt P11279); experiment: BLI
[3] = target: cynomolgus LAMP-1 extracellular domain (Macaca fascicularis, UniProt A0A2K5UUW0); experiment: BLI
[4] = target: murine LAMP-1 extracellular domain (Mus musculus, UniProt P11438); experiment: BLI
murine LAMP-1 extracellular domain, sequence (P11438 25-370): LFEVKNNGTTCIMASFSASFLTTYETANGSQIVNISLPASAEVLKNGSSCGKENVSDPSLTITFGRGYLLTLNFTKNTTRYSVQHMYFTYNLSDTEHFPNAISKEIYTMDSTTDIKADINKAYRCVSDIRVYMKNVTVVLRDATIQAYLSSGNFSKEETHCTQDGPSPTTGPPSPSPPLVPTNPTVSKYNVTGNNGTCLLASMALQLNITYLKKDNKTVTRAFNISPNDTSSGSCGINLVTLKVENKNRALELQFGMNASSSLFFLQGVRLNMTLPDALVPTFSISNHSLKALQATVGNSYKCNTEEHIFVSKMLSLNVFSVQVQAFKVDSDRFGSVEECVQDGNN

human LAMP-1 extracellular domain, sequence (P11279 29-382): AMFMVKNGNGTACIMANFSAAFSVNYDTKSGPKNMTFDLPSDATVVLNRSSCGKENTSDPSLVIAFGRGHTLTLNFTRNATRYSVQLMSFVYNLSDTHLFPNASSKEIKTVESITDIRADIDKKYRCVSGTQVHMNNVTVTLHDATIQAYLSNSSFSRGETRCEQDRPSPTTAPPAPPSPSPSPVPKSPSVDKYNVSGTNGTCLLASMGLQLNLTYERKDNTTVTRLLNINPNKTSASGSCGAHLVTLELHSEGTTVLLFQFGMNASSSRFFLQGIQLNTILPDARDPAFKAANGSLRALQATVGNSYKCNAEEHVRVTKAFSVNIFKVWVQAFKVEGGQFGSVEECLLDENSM

binding result [1]: no binding | Kd [2]: 12 nM | binding result [3]: no binding (tested: 200 nM) | binding result [4]: no binding (tested: 200 nM)
B1: mAb B (antibody, V domains shown)
VH: QVQLVQSGAEVKKPGSSVKVSCKASGYIFTNYNIHWVKKSPGQGLEWIGAIYPGNGDAPYSQKFQGKATLTADTSTSTTYMELSSLRSEDTAVYYCVRANWDVAFAYWGQGTLVTVSS
VL: DIQMTQSPSSLSASVGDRVTITCKASQDIDRYMAWYQDKPGKAPRLLIHDTSTLQSGVPSRFSGSGSGRDYTLTISNLEPEDFATYYCLQYDNLWTFGGGTKVEIK
